Patent US20140322825A1 (UNIVERSITY OF MARYLAND BALTIMORE, published 2014)
Where a chain is given by its changes, count along the chain named.

Columns and labels:
[1] = target: T1, asialo-glycophorin A (aGPA) (human, UniProt P02724 20-150, desialylated by mild acid treatment; carries O-linked TFα (Galβ1-3GalNAcα) structures; biotinylated in the flow cytometry assays); assay: SPR (Biacore T200), lambody captured by anti-His mAb, aGPA as analyte at 312 pM to 20 nM, 1:1 Langmuir fit
T1 construct: The lambody recognises the glycans on this glycoprotein; also called asialo-GPA
T1 sequence (looked up): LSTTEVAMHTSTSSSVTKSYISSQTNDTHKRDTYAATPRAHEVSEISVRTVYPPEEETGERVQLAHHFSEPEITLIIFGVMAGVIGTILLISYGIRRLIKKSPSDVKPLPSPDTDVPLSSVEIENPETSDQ
Protocol: Reference subtracted and blank subtracted binding data were fitted with a 1:1 Langmuir binding model to determine the association and dissociation constants. The equilibrium dissociation constants were calculated from these values.
(§1) All SPR binding experiments were performed using Biacore T200 (GE Healthcare). The running and sample buffer was HBS-EP+ (10 mM HEPES, pH 7.4, 150 mM NaCl, 3 mM EDTA, 0.05% Polysorbate 20). All measurements were performed at 25° C. Anti-His antibody (His capture kit, GE Healthcare) was immobilized by amine coupling to Sensor Chip CM5. VLRB.aGPA.23 and Mut.10 were diluted to 10 μg/mL and injected in each cycle at 10 μL/min for 30 seconds, to capture approximately 300 RU. […] Regeneration of the anti-His surface was accomplished using a 60 second injection of 10 mM glycine-HCl pH 1.5. The reference subtracted SPR binding curves were blank subtracted, and curve fitting was performed with a 1:1 model to obtain kinetic parameters using the Biacore T200 Evaluation software.

[2] = target: T1, asialo-glycophorin A (aGPA); assay: SPR (Biacore T200), lambody captured via anti-His mAb, aGPA as analyte, 1:1 Langmuir fit
Protocol: All SPR binding experiments were performed using Biacore T200 (GE Healthcare). The running and sample buffer was HBS-EP+ (10 mM HEPES, pH 7.4, 150 mM NaCl, 3 mM EDTA, 0.05% Polysorbate 20). All measurements were performed at 25° C. Anti-His antibody (His capture kit, GE Healthcare) was immobilized by amine coupling to Sensor Chip CM5. […] Regeneration of the anti-His surface was accomplished using a 60 second injection of 10 mM glycine-HCl pH 1.5. The reference subtracted SPR binding curves were blank subtracted, and curve fitting was performed with a 1:1 model to obtain kinetic parameters using the Biacore T200 Evaluation software.

[3] = target: T1, asialo-glycophorin A (aGPA); assay: SPR (Biacore T200), lambody captured via anti-His mAb, aGPA as analyte
Protocol: as §1

B1: lambody VLRB.aGPA.23 (as used in SPR) (other)
chain: ACPSQCSCSGTEVNCAGKSLASVPAGIPTTTRVLYLNSNQITKLEPGVFDRLANLRELHLWGNQLVSLPPGVFDNLANLEKLWLNSNQLTSLPAGLFDRLVNLEHLGLCCMKLTELPSGAFDKLTRLKQLGLDQNQLKSIPDGAFARLPSLTHVWLHTNPWDCQCTDILYLSGWVAQHSSIVGEGWPWRHSPDSAKCSGTNTPVRAVTEASTSPSKCP
notes: Dimeric, yeast-secreted lambody captured on the chip through an anti-His antibody; also called VLRB.GPA.23; not shown: 6-His and FLAG tags plus a dimerization domain
B1 gave a Kd [1] of 1.09 nM, a koff [1] of 0.000331 s⁻¹ and a kon [1] of 303000 M⁻¹ s⁻¹. It also gave a Kd [2] of 1.1 nM.

B2: Mut.10 (affinity-improved clone of VLRB.aGPA.23) (other)
chain: B1 chain with S19N, S86G, H105R, K112M, T208S
notes: also called clone Mut.10; not shown: 6-His and FLAG tags plus a dimerization domain
In the case of B2, the Kd [1] is reported as 0.637 nM, the koff [1] is reported as 0.000222 s⁻¹ and the kon [1] is reported as 349000 M⁻¹ s⁻¹. The “fold higher affinity than VLRB.aGPA.23” value [3] was 1.7 fold.
